Legend:
Experiment in all cases: cell-based or functional assay
[1] = target: CH0505TF Env, Env-pseudotyped virus produced in 293T cells (HIV-1)
[2] = target: CH0505TF.gly3.461 Env, pseudotyped virus produced in 293S GnTI- cells (HIV-1)
[3] = target: CH0505.w4.3 Env, Env-pseudotyped virus produced in 293T cells (HIV-1)
[4] = target: CH0505TF.gly4.G458Y Env, pseudotyped virus produced in 293T cells (HIV-1)
[5] = target: CH0505TF G458E Env, pseudotyped virus produced in 293S GnTI- cells (HIV-1)
[6] = target: HIV-1 Env 426c.TM4 (S278R.G471S.N460D.N463D), Env-pseudotyped virus produced in 293T cells (HIV-1 clade C strain 426c)
[7] = target: CH0505TF.gly3.197 Env, pseudotyped virus produced in 293S GnTI- cells (HIV-1)
[8] = target: CH0505TF G458K Env, pseudotyped virus produced in 293S GnTI- cells (HIV-1)
[9] = target: CH0505TF.G458Y Env, Env-pseudotyped virus produced in 293T cells (HIV-1)
[10] = target: CH0505TF G458Y.N280D Env, pseudotyped virus produced in 293S GnTI- cells (HIV-1)
[11] = target: CH0505TF G458W Env, pseudotyped virus produced in 293S GnTI- cells (HIV-1)
[12] = target: CH0505TF.gly4 Env, pseudotyped virus produced in 293S GnTI- cells (HIV-1)
[13] = target: HIV-1 Env 426c.TM (N276D.N460D.N463D), Env-pseudotyped virus produced in 293T cells (HIV-1 clade C strain 426c)
[14] = target: CH0505TF.gly3.461 Env, Env-pseudotyped virus produced in 293T cells (HIV-1)
[15] = target: HIV-1 Env 426c.TM4 (S278R.G471S.N460D.N463D), Env-pseudotyped virus produced in 293S GnTI- cells (Man5-enriched) (HIV-1 clade C strain 426c)
[16] = target: CH0505TF G458L Env, pseudotyped virus produced in 293S GnTI- cells (HIV-1)
[17] = target: CH0505.w4.3 Env, pseudotyped virus produced in 293S GnTI- cells (HIV-1)
[18] = target: HIV-1 Env 426c.TM (N276D.N460D.N463D), Env-pseudotyped virus produced in 293S GnTI- cells (Man5-enriched) (HIV-1 clade C strain 426c)
[19] = target: CH0505TF G458F Env, pseudotyped virus produced in 293S GnTI- cells (HIV-1)
[20] = target: CH0505TF.gly3.276 Env, pseudotyped virus produced in 293S GnTI- cells (HIV-1)
[21] = target: CH0505TF.gly4.G458Y Env, pseudotyped virus produced in 293S GnTI- cells (HIV-1)
[22] = target: HIV-1 Env 426c, Env-pseudotyped virus produced in 293T cells (HIV-1 clade C strain 426c)
[23] = target: CH0505TF.gly3.197 Env, Env-pseudotyped virus produced in 293T cells (HIV-1)
[24] = target: CH0505TF.gly3.276 Env, Env-pseudotyped virus produced in 293T cells (HIV-1)
[25] = target: CH0505TF G458S Env, pseudotyped virus produced in 293S GnTI- cells (HIV-1)
[26] = target: CH0505TF G458D Env, pseudotyped virus produced in 293S GnTI- cells (HIV-1)
[27] = target: CH0505TF G458R Env, pseudotyped virus produced in 293S GnTI- cells (HIV-1)
[28] = target: CH0505TF.G458Y Env, pseudotyped virus produced in 293S GnTI- cells (HIV-1)
[29] = target: CH0505TF.gly4 Env, Env-pseudotyped virus produced in 293T cells (HIV-1)
[30] = target: CH0505TF G458C Env, pseudotyped virus produced in 293S GnTI- cells (HIV-1)
[31] = target: CH0505TF Env, pseudotyped virus produced in 293S GnTI- cells (HIV-1)
[32] = target: HIV-1 CH0505TF.S365P Env on Env-pseudotyped virus produced in 293T cells (HIV-1)
[33] = target: HIV-1 CH0505TF.N280D Env on Env-pseudotyped virus produced in 293T cells (HIV-1)
[34] = target: HIV-1 CH0505TF (CH505 transmitted/founder) Env on Env-pseudotyped virus produced in 293T cells (HIV-1)
[35] = target: HIV-1 CH0505TF.G458Y Env on Env-pseudotyped virus produced in 293T cells (HIV-1)
[36] = target: HIV-1 CH0505TF.gly3.197 Env on Env-pseudotyped virus produced in 293T cells (HIV-1)
[37] = target: HIV-1 CH0505TF.gly3.197 Env on Env-pseudotyped virus produced in 293S/GnTI-/- cells (Man5-enrichment) (HIV-1)
[38] = target: HIV-1 426c.DM (N460D/N463D) Env on Env-pseudotyped virus produced in 293s/GnTI-/- cells (Man5-enrichment) (HIV-1)
[39] = target: HIV-1 Env 426c.DM (N460D.N463D), Env-pseudotyped virus produced in 293T cells (HIV-1 clade C strain 426c)
[40] = target: HIV-1 CH0505TF.gly4 Env on Env-pseudotyped virus produced in 293S/GnTI-/- cells (Man5-enrichment) (HIV-1)
[41] = target: HIV-1 clade C strain 426c Env on Env-pseudotyped virus produced in 293T cells (HIV-1)
[42] = target: HIV-1 clade C strain 426c Env on Env-pseudotyped virus produced in 293s/GnTI-/- cells (Man5-enrichment) (HIV-1)
[43] = target: HIV-1 Env 426c.DM (N460D.N463D), Env-pseudotyped virus produced in 293S GnTI- cells (Man5-enriched) (HIV-1 clade C strain 426c)
[44] = target: HIV-1 Env 426c, Env-pseudotyped virus produced in 293S GnTI- cells (Man5-enriched) (HIV-1 clade C strain 426c)
[45] = target: HIV-1 426c.DM (N460D/N463D) Env on Env-pseudotyped virus produced in 293T cells (HIV-1)
[46] = target: HIV-1 CH0505TF.gly4 Env on Env-pseudotyped virus produced in 293T cells (HIV-1)
[47] = target: HIV-1 CH0505TF (CH505 transmitted/founder) Env on Env-pseudotyped virus produced in 293T cells (HIV-1); remark: listed apart in the source
[48] = target: HIV-1 CH0505TF Env on Env-pseudotyped virus produced in 293S/GnTI-/- cells (Man5-enrichment) (HIV-1)
[49] = target: HIV-1 426c.TM (N276D/N460D/N463D) Env on Env-pseudotyped virus produced in 293s/GnTI-/- cells (Man5-enrichment) (HIV-1)
[50] = target: HIV-1 Env 426c.SM (N276D), Env-pseudotyped virus produced in 293T cells (HIV-1 clade C strain 426c)
[51] = target: HIV-1 Env 426c.SM (N276D), Env-pseudotyped virus produced in 293S GnTI- cells (Man5-enriched) (HIV-1 clade C strain 426c)
[52] = target: HIV-1 426c.SM (N276D) Env on Env-pseudotyped virus produced in 293T cells (HIV-1)
[53] = target: HIV-1 426c.SM (N276D) Env on Env-pseudotyped virus produced in 293s/GnTI-/- cells (Man5-enrichment) (HIV-1)
[54] = target: HIV-1 426c.TM (N276D/N460D/N463D) Env on Env-pseudotyped virus produced in 293T cells (HIV-1)

Work on CH235 UCA2 (antibody) yielded an IC50 (µg/ml) in TZM-bl [1] of over 50 µg/mL, an IC50 (µg/ml) in TZM-bl [2] of over 50 µg/mL and an IC50 (µg/ml) in TZM-bl [3] of over 25 µg/mL. For the same substance, the IC50 (µg/ml) in TZM-bl cells [4] was over 10 µg/mL, the IC50 (µg/ml) in TZM-bl cells [5] was over 10 µg/mL and the IC50 (µg/ml) in TZM-bl [6] was over 25 µg/mL. For the same substance, the IC50 (µg/ml) in TZM-bl [7] was over 50 µg/mL, the IC50 (µg/ml) in TZM-bl cells [8] was over 10 µg/mL and the IC50 (µg/ml) in TZM-bl [9] was over 25 µg/mL. The IC50 (µg/ml) in TZM-bl cells [10] was over 10 µg/mL, the IC50 (µg/ml) in TZM-bl cells [11] was 1.07 µg/mL and the IC50 (µg/ml) in TZM-bl [12] was over 50 µg/mL. The IC50 (µg/ml) in TZM-bl [13] was over 50 µg/mL, the IC50 (µg/ml) in TZM-bl [14] was over 50 µg/mL and the IC50 (µg/ml) in TZM-bl [15] was over 25 µg/mL. For the same substance, the IC50 (µg/ml) in TZM-bl cells [16] was 0.555 µg/mL, the IC50 (µg/ml) in TZM-bl [17] was over 25 µg/mL and the IC50 (µg/ml) in TZM-bl [18] was over 50 µg/mL. The IC50 (µg/ml) in TZM-bl cells [19] was 0.746 µg/mL, the IC50 (µg/ml) in TZM-bl [20] was over 50 µg/mL and the IC50 (µg/ml) in TZM-bl cells [21] was over 10 µg/mL. For the same substance, the IC50 (µg/ml) in TZM-bl [22] was over 50 µg/mL, the IC50 (µg/ml) in TZM-bl [23] was over 50 µg/mL and the IC50 (µg/ml) in TZM-bl [24] was over 50 µg/mL. It also gave an IC50 (µg/ml) in TZM-bl cells [25] of over 10 µg/mL, an IC50 (µg/ml) in TZM-bl cells [26] of over 10 µg/mL and an IC50 (µg/ml) in TZM-bl cells [27] of 0.916 µg/mL. It also gave an IC50 (µg/ml) in TZM-bl [28] of 0.16 µg/mL, an IC50 (µg/ml) in TZM-bl cells [28] of 0.2 µg/mL and an IC50 (µg/ml) in TZM-bl [29] of over 50 µg/mL. For the same substance, the IC50 (µg/ml) in TZM-bl cells [30] was 0.391 µg/mL and the IC50 (µg/ml) in TZM-bl [31] was over 50 µg/mL.
With VRC01 (antibody) the IC50 (µg/ml) in TZM-bl [32] was 0.1 µg/mL, the IC50 (µg/ml) in TZM-bl [33] was over 25 µg/mL and the IC50 (µg/ml) in TZM-bl [34] was 0.1 µg/mL. For the same substance, the IC50 (µg/ml) in TZM-bl [35] was over 25 µg/mL, the IC50 (µg/ml) in TZM-bl [1] was 0.1 µg/mL and the IC50 (ug/ml) in TZM-bl cells [36] was 0.023 µg/mL. It also gave an IC50 (ug/ml) in TZM-bl cells [37] of 0.009 µg/mL, an ID50/IC50 in TZM-bl [38] of 0.04 µg/mL and an IC50 (µg/ml) in TZM-bl [39] of 0.41 µg/mL. It also gave an IC50 (ug/ml) in TZM-bl cells [40] of 0.001 µg/mL, an IC50 (µg/ml) in TZM-bl [2] of 0.015 µg/mL and an IC50 (µg/ml) in TZM-bl [3] of 0.05 µg/mL. The IC50 (µg/ml) in TZM-bl [6] was 0.002 µg/mL, the IC50 (µg/ml) in TZM-bl [7] was 0.009 µg/mL and the IC50 (µg/ml) in TZM-bl [9] was over 25 µg/mL. It also gave an IC50 (µg/ml) in TZM-bl [12] of 0.001 µg/mL, an ID50/IC50 in TZM-bl [41] of 2.2 µg/mL and an IC50 (µg/ml) in TZM-bl [13] of 0.03 µg/mL. The IC50 (µg/ml) in TZM-bl [14] was 1.98 µg/mL, the IC50 (µg/ml) in TZM-bl [15] was 0.007 µg/mL and the ID50/IC50 in TZM-bl [42] was 0.19 µg/mL. For the same substance, the IC50 (µg/ml) in TZM-bl [18] was 0.015 µg/mL, the IC50 (µg/ml) in TZM-bl [20] was 0.003 µg/mL and the IC50 (µg/ml) in TZM-bl [43] was 0.04 µg/mL. The IC50 (µg/ml) in TZM-bl [22] was 2.2 µg/mL, the IC50 (µg/ml) in TZM-bl [44] was 0.19 µg/mL and the IC50 (µg/ml) in TZM-bl [23] was 0.023 µg/mL. For the same substance, the IC50 (µg/ml) in TZM-bl [24] was 0.004 µg/mL, the ID50/IC50 in TZM-bl [45] was 0.41 µg/mL and the IC50 (ug/ml) in TZM-bl cells [46] was 0.002 µg/mL. The IC50 (ug/ml) in TZM-bl cells [47] was 0.09 µg/mL, the IC50 (µg/ml) in TZM-bl [28] was 0.91 µg/mL and the IC50 (ug/ml) in TZM-bl cells [48] was 0.03 µg/mL. The ID50/IC50 in TZM-bl [49] was 0.015 µg/mL, the IC50 (µg/ml) in TZM-bl [50] was 0.39 µg/mL and the IC50 (µg/ml) in TZM-bl [29] was 0.002 µg/mL. The IC50 (µg/ml) in TZM-bl [51] was 0.04 µg/mL, the ID50/IC50 in TZM-bl [52] was 0.39 µg/mL and the IC50 (µg/ml) in TZM-bl [31] was 0.03 µg/mL. The ID50/IC50 in TZM-bl [53] was 0.04 µg/mL and the ID50/IC50 in TZM-bl [54] was 0.03 µg/mL.

Source: patent US20230140293A1
